The labels stand for the following.
B1: Chromodomain-helicase-DNA-binding protein 4, residues 623 to 675; numbered along this chain, Q14839 (parent)
chain: MIHRILNHSVDKKGHVHYLIKWRDLPYDQASWESEDVEIQDYDLFKQSYWNHR

± gives the uncertainty stated by the source.

The variants in the data set derive from B1. Nature of the data set: abundance fitness (aPCA) (normalised: wild type 0, dead -1); higher = more abundant; growth selection in yeast, the domain comes from the species named. To be noted: Homo sapiens.
In the case of W32Y, the abundance fitness was -0.909 ± 0.17.

W32D: the abundance fitness is -0.812 ± 0.18. With W32C, the abundance fitness was -0.783 ± 0.12. With W32L, the abundance fitness was -0.732 ± 0.11. The result for W32R reads -0.724 ± 0.087; that for W32H, -0.788 ± 0.15.

On to W32T, for which the abundance fitness is -0.955 ± 0.14.

As to W32V, the abundance fitness was -0.732 ± 0.11.

Consider W32G, for which the abundance fitness is -0.88 ± 0.11. Take W32E: the abundance fitness is -0.737 ± 0.17. Regarding W32N, the abundance fitness is -0.776 ± 0.14. The result for W32P reads -0.755 ± 0.12. For W32A the value was -0.997 ± 0.15. The result for W32K reads -1.01 ± 0.19.

Consider W32S, for which the abundance fitness was -0.933 ± 0.12.

As to W32F, the abundance fitness was -0.93 ± 0.18. For W32M the value was -0.827 ± 0.18; for W32Q, -0.75 ± 0.15; for W32I, -0.71 ± 0.14. Turning to Y42L, the abundance fitness was -0.592 ± 0.31. In the case of Y42K, the abundance fitness is -0.767 ± 0.49.

In the case of L25M, the abundance fitness came out at 0.096 ± 0.12.

As to L25E, the abundance fitness is -0.363 ± 0.12. Consider L25I, for which the abundance fitness was -0.344 ± 0.12. As for L25R, the abundance fitness came out at 0.059 ± 0.09. Turning to L25Y, the abundance fitness is -0.325 ± 0.12. For L25K the value was 0.206 ± 0.11. On to L25S, for which the abundance fitness is -0.125 ± 0.085. For L25A the value was -0.256 ± 0.1; for L25Q, -0.045 ± 0.12. For L25P, the abundance fitness is -0.398 ± 0.12. Turning to L25N, the abundance fitness was -0.143 ± 0.11. With L25T, the abundance fitness is -0.013 ± 0.096. Turning to L25F, the abundance fitness is -0.254 ± 0.12. On to L25H, for which the abundance fitness is -0.195 ± 0.13. The result for L25V reads -0.249 ± 0.085; that for S31H, -0.916 ± 0.17. For S31D the value was -0.854 ± 0.16; for S31I, -0.702 ± 0.13. For S31W, the abundance fitness is -0.767 ± 0.2. Turning to S31V, the abundance fitness is -0.61 ± 0.11. On to S31M, for which the abundance fitness was -1.01 ± 0.17. Consider S31N, for which the abundance fitness was -0.604 ± 0.14. For S31C the value was -0.551 ± 0.15; for S31R, -0.656 ± 0.097; for S31A, -0.817 ± 0.13. Consider S31E, for which the abundance fitness is -0.784 ± 0.16. S31G: the abundance fitness is -0.885 ± 0.14. The result for S31Y reads -0.711 ± 0.13; that for S31Q, -0.646 ± 0.14; that for S31T, 0.067 ± 0.09. Y27F: the abundance fitness was -0.118 ± 0.085. The result for Y27P reads 0.018 ± 0.092. For Y27T the value was 0.077 ± 0.086. For Y27D the value was 0.133 ± 0.11. In the case of Y27R, the abundance fitness stood at 0.04 ± 0.089. Y27M: the abundance fitness is -0.248 ± 0.13.

As for Y27N, the abundance fitness came to 0.042 ± 0.11. As for Y27K, the abundance fitness is -0.013 ± 0.14.

Take Y27I: the abundance fitness worked out at 0.21 ± 0.089.

With Y27V, the abundance fitness amounted to 0.097 ± 0.11. As for Y27H, the abundance fitness was 0.068 ± 0.089. As for Y27Q, the abundance fitness amounted to 0.197 ± 0.14. For the variant Y27L, the abundance fitness amounted to 0.156 ± 0.075.

In the case of Y27A, the abundance fitness was -0.003 ± 0.11.

For the variant Y27W, the abundance fitness was -0.18 ± 0.26.

With Y27G, the abundance fitness is -0.201 ± 0.16. Y27E: the abundance fitness is -0.241 ± 0.19. The result for Y27C reads -0.171 ± 0.13. For D41T the value was -0.892 ± 0.15; for D41C, -0.807 ± 0.14.

As for D41V, the abundance fitness is -0.81 ± 0.11. Turning to D41R, the abundance fitness is -0.863 ± 0.12. Turning to D41H, the abundance fitness is -0.459 ± 0.19.

On to D41F, for which the abundance fitness is -0.331 ± 0.17. As to D41E, the abundance fitness is -0.507 ± 0.13. In the case of D41I, the abundance fitness was -0.929 ± 0.19. The result for D41W reads -0.529 ± 0.12; that for D41M, -0.79 ± 0.14; that for D41Y, -0.431 ± 0.13. With D41G, the abundance fitness is -0.283 ± 0.093.

For the variant D41N, the abundance fitness is -0.151 ± 0.11. For D41Q the value was -0.191 ± 0.14; for D41K, -0.555 ± 0.14; for D41L, -0.846 ± 0.13. For D41S, the abundance fitness is -0.481 ± 0.09.

As to I39Q, the abundance fitness is -0.764 ± 0.18. As for I39A, the abundance fitness was -0.805 ± 0.12.

Consider I39L, for which the abundance fitness came to 0.026 ± 0.089.

Regarding I39Y, the abundance fitness is -0.195 ± 0.14. For I39P the value was -0.897 ± 0.16. For I39W the value was -0.818 ± 0.13.

As for I39M, the abundance fitness was -0.462 ± 0.14. With I39C, the abundance fitness is -0.753 ± 0.2.

Take I39H: the abundance fitness is -0.39 ± 0.15. As to I39F, the abundance fitness came out at 0.139 ± 0.15. I39K: the abundance fitness was -0.879 ± 0.2. The result for I39R reads -0.756 ± 0.098; that for I39E, -1.02 ± 0.2; that for I39D, -0.992 ± 0.21. For the variant I39G, the abundance fitness was -0.847 ± 0.12.

For I39V, the abundance fitness is -0.722 ± 0.12. For I39T the value was -0.72 ± 0.13; for I39N, -1.06 ± 0.24. Take I39S: the abundance fitness was -0.745 ± 0.11. As to R23Y, the abundance fitness was -0.139 ± 0.12. For R23Q, the abundance fitness is -0.12 ± 0.13. The result for R23S reads -0.236 ± 0.091; that for R23M, -0.265 ± 0.13; that for R23P, -0.835 ± 0.17. For R23N the value was -0.5 ± 0.12.

Take R23T: the abundance fitness was -0.189 ± 0.12. R23W: the abundance fitness was -0.183 ± 0.12. For R23L the value was -0.219 ± 0.085; for Q29G, -0.608 ± 0.12; for Q29S, -0.27 ± 0.089. The result for Q29A reads -0.105 ± 0.11; that for Q29M, -0.4 ± 0.15; that for Q29I, -1.17 ± 0.27. Take Q29H: the abundance fitness is -0.268 ± 0.17. The result for Q29R reads -0.118 ± 0.086; that for Q29E, -0.262 ± 0.15; that for Q29F, -0.657 ± 0.14.

Turning to Q29P, the abundance fitness is -0.802 ± 0.14. For Q29K the value was 0.101 ± 0.14. With Q29N, the abundance fitness was -0.48 ± 0.16. For Q29T the value was -0.702 ± 0.13; for Q29L, -0.239 ± 0.081; for Q29W, -0.589 ± 0.14.

Consider Q29Y, for which the abundance fitness is -0.493 ± 0.19. Regarding Q29C, the abundance fitness was -0.186 ± 0.12. With Q29D, the abundance fitness was -0.345 ± 0.16. Take E33I: the abundance fitness is 0.101 ± 0.15. With E33V, the abundance fitness was 0.036 ± 0.11.

Take E33D: the abundance fitness was -0.947 ± 0.24. The result for E33G reads -0.781 ± 0.17; that for E33W, -0.566 ± 0.13.

For E33L, the abundance fitness is -0.164 ± 0.084.

E33Q: the abundance fitness was -0.152 ± 0.11. For E33F the value was -0.528 ± 0.13; for E33K, -0.072 ± 0.13. The result for E33C reads 0.13 ± 0.14; that for E33P, -0.895 ± 0.16.

Turning to E33R, the abundance fitness was -0.254 ± 0.095.

E33A: the abundance fitness was -0.109 ± 0.11.

As for E33N, the abundance fitness is -0.651 ± 0.21. For E33H the value was -0.266 ± 0.16; for E33Y, -0.406 ± 0.15; for E38V, -0.217 ± 0.085. For E38C the value was -0.144 ± 0.13; for E38I, -0.122 ± 0.11.

For the variant E38R, the abundance fitness was -0.37 ± 0.091. The result for E38S reads -0.157 ± 0.087; that for E38F, -0.113 ± 0.11; that for E38L, -0.199 ± 0.086. Consider E38Y, for which the abundance fitness was -0.337 ± 0.14. The result for E38D reads -0.175 ± 0.15; that for E38G, -0.227 ± 0.1; that for E38M, -0.095 ± 0.13.

As for E38P, the abundance fitness was -0.2 ± 0.11. As for E38H, the abundance fitness was -0.324 ± 0.14.

For E38W, the abundance fitness is -0.257 ± 0.12. For E38T, the abundance fitness is -0.187 ± 0.098.

For the variant E38Q, the abundance fitness is -0.018 ± 0.15. Regarding E38N, the abundance fitness is -0.472 ± 0.16. Q40M: the abundance fitness is -0.14 ± 0.099. With Q40V, the abundance fitness was -0.131 ± 0.085.

(Values after the Human Domainome abundance scans (Beltran et al. 2025).)
